Laboratory results reported in patent EP4335864A1.

Target: recombinant murine IFN-α subtype A (murine)
Test: cell-based or functional assay

recombinant murine IFN-α subtype A (murine), sequence (P01573 24-190): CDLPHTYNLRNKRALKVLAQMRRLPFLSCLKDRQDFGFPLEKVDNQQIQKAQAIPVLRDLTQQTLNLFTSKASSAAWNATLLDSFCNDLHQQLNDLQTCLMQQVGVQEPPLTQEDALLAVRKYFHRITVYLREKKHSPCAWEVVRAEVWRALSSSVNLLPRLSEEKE

Work on “D3 immunoglobulin-like domain of vaccinia virus B18 protein, 6xHis tagged, expressed in bacteria (from UniProt P21077 254-353) (receptor)” yielded an amount of protein for full IFN neutralization, against B18 of 1.
